Data taken from patent publication US20240270826A1 (NATIONAL RESEARCH COUNCIL OF CANADA, published 2024).

B1: NRCoV2-14 VHH (VHH)
VHH: EVQLVSSGGGLVQAGGSLRLSCEASGTTFSHYAVGWYRQAPGKQREWVASISVFGSTTYGGSVAGRFTISRDNDKNTVDLQMNSLKPEDTAVYYCHAVNADIGGDYWGQGTQVTVSS
B2: NRCoV2-15 VHH (VHH)
VHH: EVQLVSSGGGLVEAGGSLRLSCIASGSTSGRNTMGWFRQAPGKQREWVAIVSTSGATNYAGSVKGRFTLSRDNAKNAVYLQMNNLKPEDTAVYYCYAAYGGGGDYWGQGTQVTVSS
B3: NRCoV2-17 VHH (VHH)
VHH: EVQLQQSGGGLVQTGGSLRLSCAAAGSPFSQLAMSWYRQISGKERAWVASISPTGNRSYSKIAKGRFTISRDNAKNTVTLQMTSLKPEDTAAYICQAANVNGGDYWGQGTQVTVSS
B4: NRCoV2-MRed04 VHH (VHH)
VHH: EVQLVESGGGLVQPGRSLRLSCAASGNSFSISTMGWFRQAPGKERELVASIWSDTTTSYADSVKGRFTISTDNTRTKVYLQMSSLNPEDTAVYYCAADRGFVVRGQYDYWGQGTQVTVSS
B5: NRCoV2-SR01 VHH (VHH)
VHH: EVQLVQSGGGSVQAGGSLRLSCVASGFTFDNYAIGWFRQAPGKEREGVSCISGNGGVTIYADSVKGRFTISRDNAKNLVYLQMNSLKPEDTAVYYCAATGIRSTWSVYGCSRLAGPYDYWGQGTQVTVSS
B6: NRCoV2-SR03 VHH (VHH)
VHH: AVQLVDSGGGLVQAGGSLRLSCAASGSIFSNNHMGWYRQAPGKQRELVAAISSGGKTNYADFAKGRFTISRDNAKNMVYLQMNSLKPEDTAVYYCNRGGWEYRSSYYIMGPHWGQGTQVTVSS
B7: NRCoV2-SR04 VHH (VHH)
VHH: QVQLVESGGGLVQAGGSLRLSCAASGRTFSSHTVGWYRQAPGKQRDLVAAISMGGNTNYADYADSVKGRFTISRDNAKNTLYLQMNSLKPEDTAVYYCNTAALVGNRLLPMATITWGQGTQVTVSS
B8: NRCoV2-SR16 VHH (VHH)
VHH: QVQLVQSAGGLVQAGGSLRLSCVVSGTTFSRYHMGWHRQAPGKQRDFVAGISTSGAVTYADSAKGRFTISRDNAKNTVYLEMNSLKLEDTALYYCNTGGWDYRSSTFIMGLNWGQGTQVTVSS
B9: NRCoV2-MRed03 VHH (VHH)
VHH: EVQLVESGGGLVQPGGSLRLSCAAIGFTLDYYAIGWFRQAPGKEREGVSCISSSDGSTYYADSVKGRFTISRDNAKNTVYLQMNSLKPEDTAVYYCATDAFATCDSWYAQIAQYDFRGQGTQVTVSS
B10: NRCoV2-MRed06 VHH (VHH)
VHH: EVQLVESGGGLVQAGGSLRLSCAASGFTLAYYAIGWFRQAPGKEREGVSCISSSDGSAHYADSVKGRFTISRDNAKNTVSLQMNSLKPEDTAVYYCATDSFSSCSDYESGMDFWGKGTQVTVSS
B11: NRCoV2-MRed07 VHH (VHH)
VHH: EVQLVESGGGLVQPGGSLTLSCAASGSIGPFNTMGWYRQAPGNQREPAAIITRGGVTNYADSVKGRFTISRDNAKNAVYLQMDSLKPDDTAVYYCYANYGWAIPYWGNGTQVTVSS
B12: NRCoV2-S2A4 VHH (VHH)
VHH: QVQLVQSGGGLVQAGGSLRLSCAVSGSPFRSNVMEWYRQAPGKQRELVASISTGGSRTYTDSVKGRFTISRDNAKNEAFLQMNSLKPEDTAVYYCHAAARDSHGIYLLDTWGQGTQVTVSS
B13: NRCoV2-S2F3 VHH (VHH)
VHH: EVQLVQSGGGLVQAGGSLRLSCATSVRILSVPAMGWYRQAPGKEREMVAVITSGGSTNYADSVKGRFTISRDNAKNTVYLQMNSLKLEDTAVYQCNLRDILSQPFWGQGTQVTVSS
B14: NRCoV2-S2G3 VHH (VHH)
VHH: QVQLVQSGGGSVQAGGSLRLSCAASGSTFGIFLMGWRRQAPGKQRELVAHITSGGATNYADSVKGRFTISRDNAKNTVYLQMNSLEPEDTAVYYCYTTKRDDASVYWGQGTQVTVSS
B15: NRCoV2-S2G4 VHH (VHH)
VHH: QVQLVQSGGGLVQAGGSLTLSCAPSGSTFSGYATNWYRQAPGKQRELVATISSDGDKNYADSVKGRFTISRDNAKNTVYLQMNSLKPEDTAVYYCNKHWWTGDWWGQGTQVTVSS
B16: NRCoV2-MRed11 VHH (VHH)
VHH: EVQLVESGGGLVQAGGSLRLSCAASGFTFSSYAMSWHRQAPGKGLEWVSAINSGGGSTSYADSVKGRFAISRDNAKNTLYLQMNSLKPEDTAVYYCATTISDGSSWSTKSYRGQGTQVTVSS
B17: NRCoV2-MRed18 VHH (VHH)
VHH: EVQLVESGGGLVQPGGSLRLSCAASTTVFGRNAMGWYRQAPGKERELVATVSDGGTPNYADSVKGRFTISRDNAKNTIYLQMNSLEPEDTAVYYCNYYNYYYGRNFWGQGTQVTVSS

These binders were tested against T1, Human SARS-CoV-2_Wuhan S (SmT1) (SARS-CoV-2 (Wuhan), UniProt P0DTC2 14-1208) (assay: SPR, VHH over immobilised S).

Going from B1 to B2, the Kd falls from 2.6 nM to 0.321 nM (8.1-fold). The second binds more tightly here.

Compared with B3, B4 is 5.6-fold higher in Kd: 0.154 nM for the first, 0.863 nM for the second. The first binds more tightly here.

First: B5
Second: B6
The Kd of the first is 3-fold lower: 0.564 nM for the first, 1.69 nM for the second. The first binds more tightly here.

Compared with B7, B8 is 14-fold higher in Kd: 0.14 nM for the first, 1.96 nM for the second.

First: B9
Second: B10
The Kd of the first is 10-fold lower: 0.508 nM for the first, 5.19 nM for the second.

Going from B11 to B12, the Kd rises from 0.105 nM to 12.8 nM (120-fold). The first binds more tightly here.

Going from B13 to B14, the Kd falls from 3.03 nM to 1.87 nM (1.6-fold).

First: B15
Second: B16
The Kd of the first is 27-fold lower: 0.232 nM for the first, 6.2 nM for the second.

Binder B17 has a Kd of 6.03 nM.

First: B1
Second: B2
The koff of the first is 4.5-fold higher: 0.00101 s⁻¹ for the first, 0.000222 s⁻¹ for the second.

Compared with B3, B4 is 14-fold higher in koff: 9.45e-05 s⁻¹ for the first, 0.00131 s⁻¹ for the second.

B5 and B6 are within 1.5-fold of each other in koff: 0.000805 s⁻¹ for the first, 0.00113 s⁻¹ for the second.

First: B7
Second: B8
The koff of the first is 1.9-fold lower: 0.000515 s⁻¹ for the first, 0.000957 s⁻¹ for the second.

Compared with B9, B10 is 8.2-fold higher in koff: 0.000121 s⁻¹ for the first, 0.000996 s⁻¹ for the second.

B11 and B12 are within 1.5-fold of each other in koff: 0.000481 s⁻¹ for the first, 0.000446 s⁻¹ for the second.

B13 and B14 are within 1.5-fold of each other in koff: 0.000473 s⁻¹ for the first, 0.000606 s⁻¹ for the second.

B15 and B16 are within 1.5-fold of each other in koff: 0.000207 s⁻¹ for the first, 0.000283 s⁻¹ for the second.

In the case of B17, the koff is reported as 0.00119 s⁻¹.

Going from B1 to B2, the kon rises from 389000 M⁻¹ s⁻¹ to 691000 M⁻¹ s⁻¹ (1.8-fold).

Going from B3 to B4, the kon rises from 614000 M⁻¹ s⁻¹ to 1.51e+06 M⁻¹ s⁻¹ (2.5-fold).

Compared with B5, B6 is 2.1-fold lower in kon: 1.43e+06 M⁻¹ s⁻¹ for the first, 670000 M⁻¹ s⁻¹ for the second.

Compared with B7, B8 is 7.5-fold lower in kon: 3.68e+06 M⁻¹ s⁻¹ for the first, 488000 M⁻¹ s⁻¹ for the second.

B9 and B10 are within 1.5-fold of each other in kon: 237000 M⁻¹ s⁻¹ for the first, 192000 M⁻¹ s⁻¹ for the second.

Compared with B11, B12 is 130-fold lower in kon: 4.58e+06 M⁻¹ s⁻¹ for the first, 34900 M⁻¹ s⁻¹ for the second.

First: B13
Second: B14
The kon of the first is 2.1-fold lower: 156000 M⁻¹ s⁻¹ for the first, 324000 M⁻¹ s⁻¹ for the second.

Compared with B15, B16 is 20-fold lower in kon: 893000 M⁻¹ s⁻¹ for the first, 45700 M⁻¹ s⁻¹ for the second.

With B17 the kon was 197000 M⁻¹ s⁻¹.

What follows are binders tested against SARS-CoV spike (S) (SARS-CoV, UniProt P59594 14-1195) (assay: SPR, VHH over immobilised S).

B1: no binding.
B2: no binding.
B3: no binding.
B6: no binding.
B7: no binding.
B8: no binding.
B9: no binding.
B10: no binding.
B11: no binding.
B12: no binding.
B16: no binding.

First: B4
Second: B5
The Kd of the first is 1900-fold higher: 300 nM for the first, 0.154 nM for the second. The second binds more tightly here.

B13 and B14 are within 1.5-fold of each other in Kd: 4.91 nM for the first, 4.27 nM for the second.

Compared with B15, B17 is 28-fold higher in Kd: 0.799 nM for the first, 22.5 nM for the second.

First: B4
Second: B5
The koff of the first is 920-fold higher: 0.097 s⁻¹ for the first, 0.000105 s⁻¹ for the second.

Compared with B13, B14 is 1.7-fold lower in koff: 0.00139 s⁻¹ for the first, 0.0008 s⁻¹ for the second.

Compared with B15, B17 is 9.2-fold higher in koff: 0.000735 s⁻¹ for the first, 0.00677 s⁻¹ for the second.

Compared with B4, B5 is 2.1-fold higher in kon: 323000 M⁻¹ s⁻¹ for the first, 681000 M⁻¹ s⁻¹ for the second.

Going from B13 to B14, the kon falls from 282000 M⁻¹ s⁻¹ to 187000 M⁻¹ s⁻¹ (1.5-fold).

Compared with B15, B17 is 3.1-fold lower in kon: 920000 M⁻¹ s⁻¹ for the first, 300000 M⁻¹ s⁻¹ for the second.

Target: T1, Human SARS-CoV-2_Wuhan S (SmT1)
Assay: SPR, VHH over immobilised S
Remark: another data set of the same source

First: B1
Second: B2
The Kd of the first is 8.1-fold higher: 2.6 nM for the first, 0.32 nM for the second. The second binds more tightly here.

Compared with B3, B4 is 5.7-fold higher in Kd: 0.15 nM for the first, 0.86 nM for the second. The first binds more tightly here.

Going from B5 to B6, the Kd rises from 0.56 nM to 1.69 nM (3-fold). The first binds more tightly here.

First: B7
Second: B8
The Kd of the first is 14-fold lower: 0.14 nM for the first, 2 nM for the second.

Compared with B9, B10 is 10-fold higher in Kd: 0.51 nM for the first, 5.2 nM for the second.

Going from B11 to B12, the Kd rises from 0.11 nM to 12.8 nM (120-fold). The first binds more tightly here.

Compared with B13, B14 is 1.6-fold lower in Kd: 3.03 nM for the first, 1.87 nM for the second. The second binds more tightly here.

First: B15
Second: B16
The Kd of the first is 27-fold lower: 0.23 nM for the first, 6.2 nM for the second.

In the case of B17, the Kd is reported as 6.03 nM.
